Measurements reported in paper PMC10462004.

Molecular target: mouse PD-1 (programmed cell death-1), wild type, expressed on CHO cells (mouse) (UniProt Q02242)
Test: biomembrane force probe

Sequence of UniProt Q02242 (Q02242 25-288): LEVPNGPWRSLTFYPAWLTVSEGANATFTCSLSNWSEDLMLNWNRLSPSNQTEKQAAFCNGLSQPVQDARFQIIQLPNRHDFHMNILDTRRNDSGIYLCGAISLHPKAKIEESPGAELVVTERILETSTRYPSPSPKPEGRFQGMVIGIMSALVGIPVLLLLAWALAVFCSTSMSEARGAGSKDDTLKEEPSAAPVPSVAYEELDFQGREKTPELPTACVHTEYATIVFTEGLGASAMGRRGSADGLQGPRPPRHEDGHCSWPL

mouse PD-L2 with C-terminal biotin (from UniProt Q9WUL5 20-221) (ligand)
F1/2 (force at which 50% of the bonds rupture): 12.1 pN
